Laboratory results published in PMC11665552, “Talin1 dysfunction is genetically linked to systemic capillary leak syndrome” (JCI Insight, 2024).

Biological target: T1, WT talin1 R12-R13-DD (murine, UniProt P26039 2138-2541)
T1 construct: talin1, murine, rod domains R12 and R13 and the dimerization domain (DD), residues 2138-2541; also called WT-R12-R13-DD; R12-R13-DD WT
Assay: SEC; 100 uM talin and 100 uM Vd1 (1:1 ratio), Superdex 200 Increase 10/300 GL, room temperature (25°C)
Details: both partners purified

T1 sequence (P26039 2138-2541): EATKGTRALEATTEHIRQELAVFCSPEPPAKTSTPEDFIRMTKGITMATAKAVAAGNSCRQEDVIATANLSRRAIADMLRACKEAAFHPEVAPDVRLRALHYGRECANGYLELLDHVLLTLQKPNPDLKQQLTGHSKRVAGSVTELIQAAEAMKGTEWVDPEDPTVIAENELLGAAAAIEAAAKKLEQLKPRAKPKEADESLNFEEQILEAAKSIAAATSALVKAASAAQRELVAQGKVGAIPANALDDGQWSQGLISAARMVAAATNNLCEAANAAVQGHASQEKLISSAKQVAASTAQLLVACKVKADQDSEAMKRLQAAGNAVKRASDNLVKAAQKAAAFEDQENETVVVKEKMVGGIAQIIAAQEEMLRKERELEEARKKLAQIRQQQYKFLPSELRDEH

binding result: binds
B1: talin-binding domain 1 of vinculin (Vd1) (domain or fragment, chicken, UniProt P12003 1-258, looked up)
chain: MPVFHTRTIESILEPVAQQISHLVIMHEEGEVDGKAIPDLTAPVSAVQAAVSNLVRVGKETVQTTEDQILKRDMPPAFIKVENACTKLVRAAQMLQADPYSVPARDYLIDGSRGILSGTSDLLLTFDEAEVRKIIRVCKGILEYLTVAEVVETMEDLVTYTKNLGPGMTKMAKMIDERQQELTHQEHRVMLVNSMNTVKELLPVLISAMKIFVTTKNTKSQGIEEALKNRNFTVEKMSAEINEIIRVLQLTSWDEDAW
notes: vinculin, chicken, domain 1 (Vd1), residues 1-258; expressed from a pET-15b plasmid; also called vinculin Vd1 domain
